Experimental data as given in publication PMC5350102.
Where two headings read alike, the source gives them in different places. One block for each substance: values may come before it.

How the values were obtained:
GST-nNOS[1–155] (human) = GST-nNOS[1–155] (human) (UniProt P29475); assay: pull-down; solid-phase no-wash binding assay: 5 μl beads bound to 1 μg GST-fused nNOS protein (or GST for background) rotated with His-TAT-NOS1AP peptides for 1 h at 4°C; unbound removed by centrifugation in filter plates, no wash; bound peptide quantified by fluorescent immunoblot; GST background subtracted; 1-site quadratic fit
nNOS [1] = biological target: nNOS (UniProt P29475); conditions: cited from earlier work
His-nNOS[1–155] (human) = His-nNOS[1–155] (human) (UniProt P29475); assay: fluorescence polarisation; competition FP: 1 μM F-GDLV, 4 μM His-nNOS(1–155), increasing competitor; approximate Kc (dissociation constant of the competitor, affinity for the nNOS PDZ pocket) from the single-site competition formula
nNOS [2] = biological target: nNOS (UniProt P29475); assay: solid-phase no-wash assay; conditions: cited from earlier work

Kd (GST-nNOS[1–155] (human)): 100 µM
Substance: His-TAT-NOS1AP[400–503] F431A, denatured (from UniProt O75052 400-503) (domain or fragment)

Substance: NOS1AP-9C
Kd (nNOS [1]): > 600 µM

Ki (His-nNOS[1–155] (human)): > 10 µM
Substance: NOS1AP[400–503] F431A cleaved from GST (from UniProt O75052 400-503) (domain or fragment)

Substance: TAT-NOS1AP 400-506 (from UniProt O75052)
Kd (nNOS [2]): 0.75 µM
